Measurements published in paper doi:10.1101/2023.10.19.563106.

Biological target: Escherichia coli CTP synthase (ecCTPS), wild type (Escherichia coli) (UniProt P0A7E5)
Assay: cryo-EM structure

Substance: Escherichia coli CTP synthase (ecCTPS), wild type (from UniProt P0A7E5 1-545) (enzyme)
- stoichiometry N: 4
